The values that follow are results of earlier work, collected in paper PMC6586500.

The series addresses Histone H3K9me3 peptide (Homo sapiens) (UniProt P68431).

Sequence of CBX5 (P45973 whole entry): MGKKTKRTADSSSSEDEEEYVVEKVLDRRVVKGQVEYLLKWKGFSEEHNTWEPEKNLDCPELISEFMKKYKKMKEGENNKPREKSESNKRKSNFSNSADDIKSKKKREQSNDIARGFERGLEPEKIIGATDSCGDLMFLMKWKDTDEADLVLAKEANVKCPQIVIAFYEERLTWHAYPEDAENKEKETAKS

A word on the Kd: it is the concentration at which binding is half-saturated. On to CBX5 (from UniProt P45973), for which the Kd is 30 µM.
